Assay [1] deals with honeybee tachykinin-related peptide receptor, FLAG-TRPR expressed in Sf21 cells (Apis mellifera). The assay can be described thus: competitive binding of a fluorescent ligand on cells.
Assay [2] has as its target honeybee tachykinin-related peptide receptor, FLAG-TRPR expressed in HEK293 cells (Apis mellifera). Described as above.

Where no end group is shown, it is not given here.

The IC50 is the concentration that gives 50% inhibition. Higher therefore signals weaker potency in that assay.

B1: tachykinin-related peptide 3 (TRP3), unlabeled (peptide)
peptide: APMGFQGMR-NH2
On to B1, for which the values for the IC50 in assay [1] and in assay [2] were 34.9 nM and 6.29 nM, respectively.

B2: tachykinin-related peptide 2 (TRP2), unlabeled (peptide)
peptide: ALMGFQGVR-NH2
In the case of B2, the values for the IC50 in assay [1] and in assay [2] were 8.76 nM and 2.34 nM, respectively.

Source of the values: article doi:10.1101/2021.01.12.426394.
